Consider three molecules from patent publication US20260022186A1.

Sequences and labels used below:
B1: 1789 AM39 IgG (antibody, V domains shown)
VH: EVQLVESGGGLVQPGGSLRLSCAASGFNVSYSSIHWVRQAPGKGLEWVASIRGAGSDTRYADSVKGRFTISADTSKNTAYLQMNSLRAEDTAVYYCARNYWGWYPFYYFAFDYWGQGTLVTVSS
VL: DIQMTQSPSSLSASVGDRVTITCRASQSVSSAVAWYQQKPGKAPKLLIYSASSLYSGVPSRFSGSRSGTDFTLTISSLQPEDFATYYCQQGWDYPITFGQGTKVEIKR
B2: 1789 AM32 IgG (antibody, V domains shown)
VH: B1 VH with S50R, A54N, G55E, S56G, R59Y
VL: B1 VL
B3: 1789 AM42 IgG (antibody, V domains shown)
VH: B1 VH with S50K, A54G, G55H, S56Q, R59H
VL: B1 VL

Substitutions are numbered along the chain they refer to.

In one test the target is T1, murine NT5E expressed on 4T1 cells (murine) (UniProt Q61503).
T1 sequence (looked up): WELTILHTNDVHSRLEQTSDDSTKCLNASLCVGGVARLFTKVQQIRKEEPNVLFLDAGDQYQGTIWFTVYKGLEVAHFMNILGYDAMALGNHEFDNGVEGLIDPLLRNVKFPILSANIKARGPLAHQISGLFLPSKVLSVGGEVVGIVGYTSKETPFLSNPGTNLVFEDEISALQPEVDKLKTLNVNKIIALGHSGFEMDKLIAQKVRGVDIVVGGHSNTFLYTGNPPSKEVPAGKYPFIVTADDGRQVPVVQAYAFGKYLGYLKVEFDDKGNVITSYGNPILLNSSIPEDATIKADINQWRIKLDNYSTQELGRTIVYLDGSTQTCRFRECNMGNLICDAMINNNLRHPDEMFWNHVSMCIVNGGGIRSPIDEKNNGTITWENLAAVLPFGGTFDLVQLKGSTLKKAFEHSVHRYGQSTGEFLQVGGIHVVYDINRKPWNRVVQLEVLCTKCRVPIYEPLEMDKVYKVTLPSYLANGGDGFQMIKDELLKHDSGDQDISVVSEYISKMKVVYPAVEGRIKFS
Description: cell-based or functional assay.
B1 gave an IC50 of inhibition of NT5E activity on 4T1 cells, ATP of 12.7 nM.
Molecule B2 showed an IC50 of inhibition of NT5E activity on 4T1 cells, ATP of 9.1 nM.
Turning to B3, the IC50 of inhibition of NT5E activity on 4T1 cells, ATP is 8.8 nM.

The next test addresses T2, human NT5E expressed on MDA-MB-231 cells (human) (UniProt P21589).
T2 sequence (looked up): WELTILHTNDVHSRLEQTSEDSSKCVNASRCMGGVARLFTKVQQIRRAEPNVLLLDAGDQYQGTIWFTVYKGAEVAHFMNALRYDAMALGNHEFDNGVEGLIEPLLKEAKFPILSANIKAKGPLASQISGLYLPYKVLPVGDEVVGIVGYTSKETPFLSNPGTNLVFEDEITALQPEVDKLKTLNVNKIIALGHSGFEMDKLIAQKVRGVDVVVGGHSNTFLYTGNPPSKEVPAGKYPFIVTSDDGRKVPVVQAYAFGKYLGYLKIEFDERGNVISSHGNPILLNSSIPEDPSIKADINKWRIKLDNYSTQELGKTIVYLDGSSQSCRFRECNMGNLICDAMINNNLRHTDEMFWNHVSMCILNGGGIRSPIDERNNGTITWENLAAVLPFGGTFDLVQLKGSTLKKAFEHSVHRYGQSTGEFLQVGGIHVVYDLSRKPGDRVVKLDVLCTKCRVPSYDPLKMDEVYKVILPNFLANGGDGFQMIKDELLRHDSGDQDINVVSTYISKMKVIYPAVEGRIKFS
Description: cell-based or functional assay.
The molecule B1 returned an IC50 of inhibition of NT5E activity on MDA-MB-231 cells, ATP of 2.5 nM and an IC50 of inhibition of NT5E activity on MDA-MB-231 cells, no ATP of 6.9 nM.
For B2 the same measures were 2.3 nM and 5.6 nM.
On the same counts, the results for B3 are 1.9 nM and 5.4 nM.
